In US20240254223A1 (NOVIMMUNE, published 2024):

T1: high affinity trimeric IL-2R (IL-2Rα, IL-2Rβ and IL-2Rγ) on HEK-Blue IL-2 cells (UniProt P01589 22-272; P14784 27-551; P31785 23-369)
T1 sequence (looked up) 1: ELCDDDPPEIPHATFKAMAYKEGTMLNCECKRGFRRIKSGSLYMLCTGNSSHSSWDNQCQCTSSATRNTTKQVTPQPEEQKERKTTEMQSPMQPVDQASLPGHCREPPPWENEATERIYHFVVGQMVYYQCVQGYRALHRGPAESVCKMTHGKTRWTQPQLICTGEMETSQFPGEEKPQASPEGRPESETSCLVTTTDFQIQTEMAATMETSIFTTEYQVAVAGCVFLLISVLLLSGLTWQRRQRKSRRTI
T1 sequence (looked up) 2: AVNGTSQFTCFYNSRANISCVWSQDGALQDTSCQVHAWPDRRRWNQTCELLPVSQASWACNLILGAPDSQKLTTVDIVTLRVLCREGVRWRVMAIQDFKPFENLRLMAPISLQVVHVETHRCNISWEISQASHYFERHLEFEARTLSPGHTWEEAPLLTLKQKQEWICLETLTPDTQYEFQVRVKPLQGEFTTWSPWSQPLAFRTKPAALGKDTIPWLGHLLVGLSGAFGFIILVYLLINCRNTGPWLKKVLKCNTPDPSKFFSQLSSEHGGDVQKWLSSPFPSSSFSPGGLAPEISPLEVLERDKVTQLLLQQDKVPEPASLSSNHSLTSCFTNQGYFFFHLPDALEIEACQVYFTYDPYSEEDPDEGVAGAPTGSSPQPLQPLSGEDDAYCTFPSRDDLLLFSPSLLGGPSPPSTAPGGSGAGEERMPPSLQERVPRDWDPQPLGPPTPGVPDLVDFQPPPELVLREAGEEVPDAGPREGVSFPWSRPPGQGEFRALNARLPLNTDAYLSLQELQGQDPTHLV
T1 sequence (looked up) 3: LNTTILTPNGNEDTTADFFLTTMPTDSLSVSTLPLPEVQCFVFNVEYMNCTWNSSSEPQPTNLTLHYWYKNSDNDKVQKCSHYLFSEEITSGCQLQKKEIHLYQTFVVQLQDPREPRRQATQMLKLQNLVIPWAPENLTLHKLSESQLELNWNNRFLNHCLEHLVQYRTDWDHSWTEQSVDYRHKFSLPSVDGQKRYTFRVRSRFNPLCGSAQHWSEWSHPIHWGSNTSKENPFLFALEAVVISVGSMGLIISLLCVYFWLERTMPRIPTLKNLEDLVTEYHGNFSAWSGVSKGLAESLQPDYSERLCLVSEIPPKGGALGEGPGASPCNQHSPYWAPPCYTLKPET


What was measured:
[1] = target: T1, high affinity trimeric IL-2R (IL-2Rα, …); test: cell-based or functional assay
[2] = target: T2, CD47 at the surface of Peak cells (human, UniProt Q08722 19-323); test: flow cytometry, Peak cells, after MMP-9 treatment
T2 construct: whole, on cells; also called cell surface CD47
Experimental: Binding activity of antibody-cytokine/receptor fusions before and after cleavage was also evaluated by flow cytometry. Peak cells derived from HEK 293 which are human cells expressing CD47 were used to evaluate masking efficacy and binding recovery to CD47 by flow cytometry. Peak cells were diluted in cold FACS buffer (PBS, 2% BSA) to 1.2×10⁶ cells/mL. 3×10⁵ cells/well were added in a 96 well V-bottom plate. The plate was then centrifugated for 5 min at 1300 rpm, 4° C. Supernatants were removed and cells were washed twice using FACS buffer. A serial dilution of antibody-cytokine/receptor fusions previously digested with MMP-9 or not digested as described above was prepared in FACS buffer. An irrelevant antibody was included. Then, 150 μL of each diluted antibody were added in corresponding well and incubated for 30 min at 4° C. Cells were washed twice with FACS buffer and 100 μL of a mouse anti human Fc-PE conjugated secondary antibody were added and the plate was incubated for 20 min at 4° C. Cells were then washed twice with FACS buffer. Finally, 150 μL of SYTOX blue dead cell stain (ThermoFisher) diluted to 1/5000 in FACS buffer were added before detection by flow cytometry with Cytoflex (Beckman Coulter). Acquisition was performed with 10000 events for each well. Data were analyzed by FlowJo software.

His-tagged human CD47 = target: T3, His-tagged human CD47 (human, UniProt Q08722 19-139, limits assumed); test: BLI, His-CD47 on HIS1K sensor, after MMP-9 treatment
T3 construct: loaded on HIS1K biosensors at 2.5 µg/mL; also called target antigen; not shown: His tag
Experimental: The capacity of the masking domains to inhibit binding activity of the antibody was evaluated by Bio-Layer Interferometry (BLI). […] Binding experiments were performed to evaluate the masking efficiency and the binding recovery after cleavage of the masking domains. BLI was performed on an Octet RED96 system (Sartorius). His-tagged human CD47 was diluted at 2.5 μg/mL in Kinetic Buffer (KB) (Sartorius) and loaded on HIS1K biosensors (anti-His tag antibody biosensors, Sartorius) for 300 seconds. Loaded biosensors were dipped into antibodies diluted at 15 μg/mL in KB for 300 seconds to monitor association. Then, biosensors were transferred in KB for dissociation for 60 seconds. Binding profiles were then analyzed with ForteBio Data Analysis software.

Binder	EC50 after cleavage IL-2, HEK Blue IL-2 αβγ reporter assay [1] [nM]	EC50 [2] [nM]	Binding after cleavage (BLI) (His-tagged human CD47) [nm]
Construct No 291 after cleavage by MMP-9 (antibody) chain 1: DIQMTQSPSSLSASVGDRVTITCNVDQVIANWLNWYQQKPGKAPKLLIYAASSLQSGVPSRFSGSGSGTDFTLTISSLQPEDFATYYCQQMHPRAPKQFGQGTKVEIKRTVAAPSVFIFPPSDEQLKSGTASVVCLLNNFYPREAKVQWKVDNALQSGNSQESVTEQDSKDSTYSLSSTLTLSKADYEKHKVYACEVTHQGLSSPVTKSFNRGEC chain 2: not shown	0.01	0.4	–
Construct No 530 after cleavage by MMP-9 (antibody, MMP-9 digest of m18; the sample also holds the released IL-2, IL-2Rα and IL-2Rβ; also called n530 after cleavage; not shown: remnant of CM1 and linker after MMP-9 cleavage) light: DIQMTQSPSSLSASVGDRVTITCNVDQVIANWLNWYQQKPGKAPKLLIYAASSLQSGVPSRFSGSGSGTDFTLTISSLQPEDFATYYCQQMHPRAPKQFGQGTKVEIKRTVAAPSVFIFPPSDEQLKSGTASVVCLLNNFYPREAKVQWKVDNALQSGNSQESVTEQDSKDSTYSLSSTLTLSKADYEKHKVYACEVTHQGLSSPVTKSFNRGEC heavy: not shown	0.01	0.4	–
Construct No 490 after cleavage by MMP-9 (antibody, MMP-9 digest of m20; the sample also holds the released IL-2, IL-2Rα (to 185) and IL-2Rβ; also called n490 after cleavage; not shown: remnant of CM1 and linker after MMP-9 cleavage) light: DIQMTQSPSSLSASVGDRVTITCNVDQVIANWLNWYQQKPGKAPKLLIYAASSLQSGVPSRFSGSGSGTDFTLTISSLQPEDFATYYCQQMHPRAPKQFGQGTKVEIKRTVAAPSVFIFPPSDEQLKSGTASVVCLLNNFYPREAKVQWKVDNALQSGNSQESVTEQDSKDSTYSLSSTLTLSKADYEKHKVYACEVTHQGLSSPVTKSFNRGEC heavy: not shown	0.01	0.5	–
Construct No 1051 after cleavage by MMP-9 (antibody, MMP-9 digest of m36; the sample also holds the released IL-2Rα-(GGGGS)2-IL-2 fusion (no cleavable linker between the two); also called n1051 after cleavage; not shown: remnant of CM1 and linker after MMP-9 cleavage) light: DIQMTQSPSSLSASVGDRVTITCNVDQVIANWLNWYQQKPGKAPKLLIYAASSLQSGVPSRFSGSGSGTDFTLTISSLQPEDFATYYCQQMHPRAPKQFGQGTKVEIKRTVAAPSVFIFPPSDEQLKSGTASVVCLLNNFYPREAKVQWKVDNALQSGNSQESVTEQDSKDSTYSLSSTLTLSKADYEKHKVYACEVTHQGLSSPVTKSFNRGEC heavy: not shown	0.03	1.7	1.2
Construct No 500 after cleavage by MMP-9 (antibody, MMP-9 digest of m21; the sample also holds the released IL-2, IL-2Rβ and IL-2Rα; also called n500 after cleavage; not shown: remnant of CM1 and linker after MMP-9 cleavage) light: DIQMTQSPSSLSASVGDRVTITCNVDQVIANWLNWYQQKPGKAPKLLIYAASSLQSGVPSRFSGSGSGTDFTLTISSLQPEDFATYYCQQMHPRAPKQFGQGTKVEIKRTVAAPSVFIFPPSDEQLKSGTASVVCLLNNFYPREAKVQWKVDNALQSGNSQESVTEQDSKDSTYSLSSTLTLSKADYEKHKVYACEVTHQGLSSPVTKSFNRGEC heavy: not shown	0.02	0.8	–

Further binders by falling EC50 [2], results first:

EC50 after cleavage IL-2, HEK Blue IL-2 αβγ reporter assay [1] [nM]	EC50 [2] [nM]	Binding after cleavage (BLI) (His-tagged human CD47) [nm]	Binder
0.01	0.4	–	Construct No 450 after cleavage by MMP-9 (antibody, MMP-9 digest of m16; the sample also holds the released IL-2, IL-2Rα and IL-2Rβ; also called n450 after cleavage; not shown: remnant of CM1 and linker after MMP-9 cleavage) light: DIQMTQSPSSLSASVGDRVTITCNVDQVIANWLNWYQQKPGKAPKLLIYAASSLQSGVPSRFSGSGSGTDFTLTISSLQPEDFATYYCQQMHPRAPKQFGQGTKVEIKRTVAAPSVFIFPPSDEQLKSGTASVVCLLNNFYPREAKVQWKVDNALQSGNSQESVTEQDSKDSTYSLSSTLTLSKADYEKHKVYACEVTHQGLSSPVTKSFNRGEC heavy: not shown
0.01	0.3	–	Construct No 471 after cleavage by MMP-9 (antibody, MMP-9 digest of m17; the sample also holds the released IL-2, IL-2Rα and IL-2Rβ; also called n471 after cleavage; not shown: remnant of CM1 and linker after MMP-9 cleavage) light: DIQMTQSPSSLSASVGDRVTITCNVDQVIANWLNWYQQKPGKAPKLLIYAASSLQSGVPSRFSGSGSGTDFTLTISSLQPEDFATYYCQQMHPRAPKQFGQGTKVEIKRTVAAPSVFIFPPSDEQLKSGTASVVCLLNNFYPREAKVQWKVDNALQSGNSQESVTEQDSKDSTYSLSSTLTLSKADYEKHKVYACEVTHQGLSSPVTKSFNRGEC heavy: not shown
